Measured values reported in patent publication US8106168B2, “Metalloproteinase binding proteins” (Dyax Corp., priority 2005, dated 2012).

B1: M0038-C05: Fab that binds human MMP-14; DNA LV SEQ ID NO: 50, HV SEQ ID NO: 51 (antibody, V domains shown)
VL: QDIQMTQSPSSLSASVGDRVTITCRASQSISSYLNWYQQKPGKAPKLLIYAASSLQSGVPSRFSGSGSGTDFTLTISRLEPEDFAVYYCQQYGSSPTFGQGTKVEIK
VH: EVQLLESGGGLVQPGGSLRLSCAASGFTFSSYIMVWVRQAPGKGLEWVSVIYPSGGPTYYADSVKGRFTISRDNSKNTLYLQMNSLRAEDTAVYYCARDPRLERFYFDYWGQGTLVTVSS
modifications: Synthetically generated oligonucleotide
B2: M0037-B10: Fab that binds human MMP-14; DNA LV SEQ ID NO: 38, HV SEQ ID NO: 39 (antibody, V domains shown)
VH: EVQLLESGGGLVQPGGSLRLSCAASGFTFSVYYMGWVRQAPGKGLEWVSYIGSSGGWTEYADSVKGRFTISRDNSKNTLYLQMNSLRAEDTAVYYCARDLSAVAGLGGAFDIWGQGTMVTVSS
VL: QDIQMTQSPSSLSASVGDRVAITCRASQSIDTYLNWYQQKPGKAPKLLIYAASKLEDGVPSRFSGSGTGTDFTLTIRSLQPEDFASYFCQQSYSSPGITFGPGTKVEIK
B3: M0030-A04: Fab that binds human MMP-14; DNA LV SEQ ID NO: 6, HV SEQ ID NO: 7 (antibody, V domains shown)
VH: EVQLLESGGGLVQPGGSLRLSCAASGFTFSVYEMNWVRQAPGKGLEWVSSIYSSGGRTDYADSVKGRFTISRDNSKNTLYLQMNSLRAEDTAVYYCAREAHYYDSSGPPDYWGQGTLVTVSS
VL: QSELTQPPSASGTPGQRVTISCSGSSSNIGINFVTWYQQLPGTAPKLLIYTNNQRPSGVPDRFSSSKSGASASLAISGLQSEDEAAYYCAAWDDNLNGPVFGGGTKLTVL
modifications: Synthetically generated oligonucleotide
B4: M0038-B06: Fab that binds human MMP-14; DNA LV SEQ ID NO: 48, HV SEQ ID NO: 49 (antibody, V domains shown)
VL: QDIQMTQSPSSLSASVGDRVTITCRASQSISSYLNWYQQKPGKAPKLLIYAASSLQSGVPSRFRGSGSGTDFSLTISSLQPEDFATYYCQQTYSGLPTFGGGTVVEIK
VH: EVQLLESGGGLVQPGGSLRLSCAASGFTFSSYVMGWVRQAPGKGLEWVSVISPSGGWTTYADSVKGRFTISRDNSKNTLYLQMNSLRAEDTATYYCASRGVVTNLDYWGQGTLVTVSS
modifications: Synthetically generated oligonucleotide
B5: M0035-F02: Fab that binds human MMP-14; DNA LV SEQ ID NO: 28, HV SEQ ID NO: 29 (antibody, V domains shown)
VH: EVQLLESGGGLVQPGGSLRLSCAASGFTFSFYRMEWVRQAPGKGLEWVSSIVPSGGFTRYADSVKGRFTISRDNSKNTLYLQMNSLRAEDTAVYYCARFHVLRYFDWFGNTQDTDAFDIWGQGTLVTVSS
VL: QDIQMTQSPATLSLSPGERATLSCRASQSVSNYLAWYQQKPGQAPRLLIYDASNRATGIPARFSGSGSGTDFTLTISSLEPEDFAVYYCQQRSNWPLTFGGGTKVEIK
modifications: Synthetically generated oligonucleotide
B6: M0038-D06: Fab that binds human MMP-14; DNA LV SEQ ID NO: 54, HV SEQ ID NO: 55 (antibody, V domains shown)
VL: QDIQMTQSPATLSLSPGERATLSCRASQSVSSYLAWYQQKPGQAPRLLIYDASNRATGIPARFSGSGSGTDFTLTISSLEPEDFAVYYCQQRSNWPLTFGQGTRLEIK
VH: EVQLLESGGGLVQPGGSLRLSCAASGFTFSWYYMGWVRQAPGKGLEWVSYIGSSGGMTGYADSVKGRFTISRDNSKNTLYLQMNSLRAEDTATYYCAMVGFLPTVDYWGQGTLVTVSS
modifications: Synthetically generated oligonucleotide
B7: M0036-D02: Fab that binds human MMP-14; DNA LV SEQ ID NO: 30, HV SEQ ID NO: 31 (antibody, V domains shown)
VL: QDIQMTQSPATLSLSPGEKATLSCRASQTVYNYLAWYQQKPGQAPRLLIYDAFNRATGIPARFSGSGSGTDFTLTISSLEPEDFAVYYCQQRGNWPRTFGQGTKVEIK
VH: EVQLLESGGGLVQPGGSLRLSCAASGFTFSFYKMTWVRQAPGKGLEWVSGIYPSGGRTVYADSVKGRFTISRDNSKNTLYLQMNSLRAEDTAMYYCARGPHYYDSPGAFDIWGQGTMVTVSS
modifications: Synthetically generated oligonucleotide
B8: M0037-A08: Fab that binds human MMP-14; DNA LV SEQ ID NO: 36, HV SEQ ID NO: 37 (antibody, V domains shown)
VL: QDIQMTQSPSSVSASVGDRVTITCRASQGVSSYLAWYQQKPGKAPKLLIYGASTLQNGVPSRFSGSGSGTDFTLTISSLQPEDFATYHCQQVHSFPPTFGQGTKVEIK
VH: EVQLLESGGGLVQPGGSLRLSCAASGFTFSHYMMMWVRQAPGKGLEWVSGISSSGGRTGYADSVKGRFTISRDNSKNTLYLQMNSLRAEDTAVYYCASFGNSGSYSWRAFDIWGQGTTVTVSS
modifications: Synthetically generated oligonucleotide
B9: M0037-C03: Fab that binds human MMP-14; DNA LV SEQ ID NO: 40, HV SEQ ID NO: 41 (antibody, V domains shown)
VL: QDIQMTQSPSSVSASVGDRVTITCRASQGISSWLAWYQQKPGKAPKLLIYAASSLQSGVPSRFSGSGSGTDFTLTISSLQPEDFATYYCQQANSFPFVTFGQGTKLEIK
VH: EVQLLESGGGLVQPGGSLRLSCAASGFTFSMYLMIWVRQAPGKGLEWVSVISSSGGQTKYADSVKGRFTISRDNSKNTLYLQMNSLRAEDTAVYYCARTDLTGYSAGAFDIWGQGTMVTVSS
modifications: Synthetically generated oligonucleotide
B10: M0037-H09: Fab that binds human MMP-14; DNA LV SEQ ID NO: 46, HV SEQ ID NO: 47 (antibody, V domains shown)
VL: QDIQMTQSPLSLPVTPGEPASISCRSSQSLLHGNGNNYLDWYLQKPGQSPQLLIYLGSNRASGVPDRFSGSGSGTDFTLKISSVEAEDVGVYYCMQGLQTPHTFGQGTQLEIK
VH: EVQLLESGGGLVQPGGSLRLSCAASGFTFSRYWMDWVRQAPGKGLEWVSSIRSSGGMTGYADSVKGRFTISRDNSKNTLYLQMNSLRAEDTAVYYCARHRTGRGAFDIWGQGTTVTVSS
modifications: Synthetically generated oligonucleotide
B11: M0036-F02: Fab that binds human MMP-14; DNA LV SEQ ID NO: 32, HV SEQ ID NO: 33 (antibody, V domains shown)
VL: QYELTQPPSLSVSPGQTASITCSGEKLGEKFASWYQRRPGQSPLLIIYQDNKRPSGIPERFSGSNSGNTAALTITGTQAMDDADYYCQAWESTTAVFGGGTKLTVL
VH: EVQLLESGGGLVQPGGSLRLSCAASGFTFSRYTMGWVRQAPGKGLEWVSRIYSSGGNTVYADSVKGRFTISRDNSKNTLYLQMNSLRAEDTATYYCARTRRDGYNPFDYWGQGTLVTVSS
modifications: Synthetically generated oligonucleotide

target: MMP-14 (Homo sapiens, UniProt P50281); assay: Selection and phage ELISA screening of anti-MMP-14 Fabs; type: binding; conditions: Fab from FAB310 phage display library
Procedure: Strategy I: A 100-fold excess of the FAB310 library (e.g., an amount of the library that should contain 100 copies of each library member) was depleted of streptavidin-binding antibodies by incubating the library with 200 μL of streptavidin beads for 1 hour at room temperature (RT) with rotation. 500 nM of biotinylated MMP-14 was coupled to streptavidin beads by incubation with 100 μL of streptavidin beads. The MMP-14 beads were then incubated with the streptavidin-depleted library for 1 hour at RT with rotation. The beads were then rinsed three times with 2% MTRIS/0.1% Tween, transferred to a fresh tube and washed an additional three times with 2% MTRIS/0.1% Tween, and transferred to a fresh tube and washed a final time with Round 1 TRIS buffer (50 mM TRIS; 50 mM CaCl2; 150 mM NaCl, pH 7.5).
MMP-14 binding antibodies were eluted from the beads by re-suspension in 1 mL 2% MTRIS containing 2.5 μM TIMP-2 and incubation for 1 hour at RT with rotation. The beads were then washed three times with 2% MTRIS/0.1% Tween, transferred to a fresh tube and washed three times with TRIS/0.1% Tween, and transferred to a fresh tube and washed a final time with TRIS. 1 mL output was used for infection of 9 mL TG1 bacteria (grown to OD600=0.5). The beads were further eluted by suspension in 1 mL 100 mM TEA for 10 minutes. The supernatant was neutralized with 500 μl TRIS/HCl pH 7.5. 1 mL of the second elution was used for infection of 9 mL TG1 bacteria (grown to OD600=0.5).
Two additional rounds of selection were carried out under the same conditions as the first round, except that the streptavidin beads were loaded with 100 nM biotinylated MMP-14 and the number of washes were doubled (6 times with 2% MTRIS/0.1% Tween, 6 times with TRIS/0.1% Tween and 2 times with TRIS), and Round 2/3 Tris buffer (50 mM TRIS; 5 mM CaCl2; 150 mM NaCl pH=7.5) was used for incubation and wash.
TIMP-2 was coupled to carboxylic beads, then complexed with a combination of biotinylated MMP-14 (500 nM each). The complexed beads were incubated with a 100 fold excess of FAB310 library that had been previously depleted by incubation with streptavidin beads and carboxylic beads. Elution/washing was carried out as for Strategy I.
Two additional rounds of selection were carried out, essentially as described for Strategy I, except that only 100 nM of each of MMP-14 were used in the bead complexes.
384-well plates were coated with biotinylated BSA (2 μg/ml in 50 mM TRIS; 5 mM CaCl2; 150 mM NaCl, pH 7.5), then washed 3 times with 50 mM TRIS; 5 mM CaCl2; 150 mM NaCl, pH 7.5; 0.1% Tween. Streptavidin was captured on the coated plates by incubation with 10 μg/mL streptavidin in 50 mM TRIS; 5 mM CaCl2; 150 mM NaCl pH 7.5; 0.5% Gelatin, followed by a wash with 50 mM TRIS; 5 mM CaCl2; 150 mM NaCl pH=7.5; 0.1% Tween. On the day the assay was to be performed, biotinylated MMP-14 (1 μg/ml) was captured in 50 mM TRIS; 5 mM CaCl2; 150 mM NaCl, pH 7.5.
95 clones were picked from each of Round 2 and Round 3 of each selection strategy, producing 12 masterplates. ELISA was run on the MiniTrak-5 deck according to SOP.

Bind to human MMP-14, bind to human MMP-14:
B1
B2
B3
B4
B5
B6
B7
B8
B9
B10
B11
